In patent US20140017701A1, “CHIMERIC PDK1 KINASES” (priority 2011, published 2014):
Entries after “also recorded” stand apart in the source; their conditions may differ.

T1: GST-C1 (PKCl 131-186) / His-PKCl Δ223 interaction (Homo sapiens, UniProt P41743)
T1 sequence (P41743 233-596): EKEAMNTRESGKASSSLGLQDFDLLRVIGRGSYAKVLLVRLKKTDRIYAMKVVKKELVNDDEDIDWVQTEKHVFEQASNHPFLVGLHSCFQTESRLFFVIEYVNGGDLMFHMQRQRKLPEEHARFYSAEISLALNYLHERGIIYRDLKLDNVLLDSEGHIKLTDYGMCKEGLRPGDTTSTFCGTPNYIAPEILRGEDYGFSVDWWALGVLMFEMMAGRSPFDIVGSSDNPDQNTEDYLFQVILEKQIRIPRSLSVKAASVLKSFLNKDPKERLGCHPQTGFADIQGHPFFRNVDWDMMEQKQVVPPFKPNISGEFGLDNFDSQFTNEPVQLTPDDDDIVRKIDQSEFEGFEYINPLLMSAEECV

T2: GST-PSR-C1 (PKCl 100-185) / His-PKCl Δ223 interaction (Homo sapiens, UniProt P41743)
T2 sequence (P41743 233-596): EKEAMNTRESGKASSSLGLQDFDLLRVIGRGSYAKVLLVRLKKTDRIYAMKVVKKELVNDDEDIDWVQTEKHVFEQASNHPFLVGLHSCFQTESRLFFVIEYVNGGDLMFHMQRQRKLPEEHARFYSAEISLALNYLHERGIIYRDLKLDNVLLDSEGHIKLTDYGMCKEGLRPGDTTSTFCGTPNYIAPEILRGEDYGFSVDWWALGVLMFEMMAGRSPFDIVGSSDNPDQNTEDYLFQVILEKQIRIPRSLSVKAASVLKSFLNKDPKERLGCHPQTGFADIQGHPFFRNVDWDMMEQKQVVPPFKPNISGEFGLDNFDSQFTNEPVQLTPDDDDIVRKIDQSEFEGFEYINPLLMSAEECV

T3: PSRtide (biotin-KSIYRRGSRRWRKLYRA)
T3 chain: KSIYRRGSRRWRKLYRA


Experiments:
[1] = target: T1, GST-C1 (PKCl 131-186) / His-PKCl Δ223 interaction; test: AlphaScreen interaction assay GST-C1 / His-PKCι Δ223; format: binding
Excerpt: In FIG. 11 evidence is provided that the C1 domain directly interacts with the catalytic domain of PKCz. A novel assay is set-up to investigate the interaction between the C1 domain constructs fused to GST and the catalytic domain of atypical PKCs containing a 6×His-tag. The assay is based on the alphascreen technology using a donor bead coupled to anti-GST antibodies (to bind the GST-PSR-C1 or GST-C1 constructs derived from PKCl) and Ni-NTA acceptor beads that bind to His-PKCl Δ223 (catalytic domain). The interaction is measured by the emission of light from the acceptor beads that happens when the two beads are in close proximity. GST-PSR-C1 readily interacted with His-PKCl Δ223. […] PIFtide and HM polypeptides are known to interact with the PIF-pocket of AGC kinases. Thus, the assay provides evidence that polypeptides binding to the PIF-pocket displace the interaction. In addition, small compounds that inhibit both atypical PKC isoforms and have been co-crystallized with PDK1-PKCz chimera (e.g. PS315), also displace the interaction between the C1 domain and the catalytic domain. Together, the data highlight the important role of the PIF-pocket in the regulation of PKCs and the need to develop tools to improve the methods for drug development to the PIF-pocket on AGC kinases. […] Indeed modeling of the pseudosubstrate into the substrate-binding site, allows the interaction of the C1 domain with the external part of the helix α-C that is a main component of the PIF-pocket (FIG. 13). The invention further provides a method for the screening for compounds that interact with the PIF-pocket on PKC isoforms, PDK1 chimeras or other AGC kinases, as well as kits for said method and compounds identified by said method (aspects (10) to (12) of the invention).
(§1) The AlphaScreen assay was performed according to the manufacturer's general protocol (Perkin Elmer). […] Proteins and beads were incubated in the dark for 1 h 30 min at room temperature and the emission of light from the acceptor beads was measured in the EnVision reader (Perkin Elmer) and analyzed using the EnVision manager software.

[2] = target: T2, GST-PSR-C1 (PKCl 100-185) / His-PKCl Δ223 interaction; test: AlphaScreen interaction assay GST-PSR-C1 / His-PKCι Δ223; format: binding
Excerpt: In FIG. 11 evidence is provided that the C1 domain directly interacts with the catalytic domain of PKCz. A novel assay is set-up to investigate the interaction between the C1 domain constructs fused to GST and the catalytic domain of atypical PKCs containing a 6×His-tag. The assay is based on the alphascreen technology using a donor bead coupled to anti-GST antibodies (to bind the GST-PSR-C1 or GST-C1 constructs derived from PKCl) and Ni-NTA acceptor beads that bind to His-PKCl Δ223 (catalytic domain). The interaction is measured by the emission of light from the acceptor beads that happens when the two beads are in close proximity. GST-PSR-C1 readily interacted with His-PKCl Δ223. […] PIFtide and HM polypeptides are known to interact with the PIF-pocket of AGC kinases. Thus, the assay provides evidence that polypeptides binding to the PIF-pocket displace the interaction. […]
as §1

PDK1 = test: Protein kinase activity assay, PDK1; format: biochemical, human; conditions: PDK1 wt / PDK1 50-359
Method: For the expression and purification of protein kinases fused to GST, pEBG-2T derived plasmids were transfected into 8×14.5 cm dishes containing HEK293 cells using the PEI method ([…] and […]/14.5 cm dish). The cells were lysed after 48 h in a buffer containing 50 mM Tris-HCl pH 7.5, 1 mM EGTA, 1 mM EDTA, 1% (w/v) Triton X-100, 1 mM sodium orthovanadate, […], 5 mM sodium pyrophosphate, 0.27 M sucrose, 0.1% β-mercaptoethanol, and 1 tablet of protease inhibitor cocktail per 50 ml of buffer. Lysates were frozen in liquid nitrogen and kept at −80° C. until required. Purification involved incubation of the cleared lysate with glutathione sepharose, followed by 2 washes with 0.5 M NaCl in lysis buffer, 8 washes with a buffer containing 50 mM Tris-HCl, 0.1 mM EGTA and 0.1% β-mercaptoethanol (buffer A), and a last wash with buffer A supplemented with 0.26 M sucrose. Elution was performed with this last buffer containing 20 mM glutathione and the GST-fusion protein was cleared from resin by filtration through a “SigmaPrep” spin column (Sigma). GST-fusion proteins were aliquoted, snap frozen in liquid nitrogen and kept at −80° C. until use. Purity at this stage was above 85% as estimated by SDS-PAGE and staining with Coomassie Brilliant Blue R250. PRK2 was expressed from pEBG-2T-PRK2 (Balendran, A. et al. J Biol Chem 275, 20806-13. (2000)), SGK1 from pEBG-2T-SGK1-ΔN[Ser422Asp], PKBα from pEBG-2T-PKBα[Ser473Asp] (Biondi et al., D. R. Embo J 20, 4380-90. (2001)), PKCl from pEBG-2T-PKCl and PKCζ from pEBG-2T-PKCζ. PDK1 and S6K1 were expressed in Sf9 insect cells using a baculovirus expression system from pFastBac-PDK1 and pFastBac-56K1-T2[Thr412Glu].
The protein kinase activity assays were performed essentially as previously described (Engel, M. et al. Embo J 25, 5469-80 (2006)). The assays were done in a 96-well format and 4 μl aliquots spotted on P81 phospho-cellulose papers (Whatman) using epMotion 5070 (Eppendorf), washed in 0.01% phosphoric acid, dried, and then exposed and analyzed using PhosphoImager technology (FLA-9000 Starion, Fujifilm). Atypical PKC (aPKC) activity assays were performed in a total volume of 20 μl containing 50 mM Tris-HCl pH 7.5, 0.05 mg/ml BSA, 0.1% (v/v) 2-mercaptoethanol, 10 mM MgCl2, 100 μM [γ^32P]ATP (5-50 cpm/pmol), 0.003% Brij, 30-50 ng of aPKC, and MBP (10 μM) or PSRtide (100 μM) as the substrate. After 15 min pre-incubation, the kinase reaction was started by addition of 6 μl of an ATP-Mg mix. When required, lipid activator (LA) phosphatidylserine (100 ng) or PKC lipid activator mix (1×) was included in the pre-incubation. Low basal activity and consistent activation of 1-592 PKCζ and 498 PKCζ by LA was obtained when the pre-incubation time was started by addition of the whole mix on the enzyme.
The substrates were T308tide (200 μM) for PDK1, Kemptide (100 μM) for PKA, and Crosstide (100 μM) for SGK, PKB, S6K, and PRK2. The activity assays for PKCα, β, θ, and δ were performed in the presence of PKC lipid activator mix (1×) using 3 μM of histone H1 as substrate.
The activity assays were performed in duplicates or triplicates (in the case of the temperature stability assay) with less than 10% difference between the duplicate pairs. The activity assays shown were repeated at least twice with similar results. Moreover, most of the assays shown were repeated multiple times with enzymes from independent purifications with similar results. Representative experiments are shown. […]

[3] = target: T3, PSRtide (biotin-KSIYRRGSRRWRKLYRA)

Molecule	Effect on interaction of GST-C1 with His-PKCι Δ223 [1]	Effect on interaction of GST-PSR-C1 with His-PKCι Δ223 [2]	Effect on PDK1 activity (PDK1)	specific activity (phosphorylation of PSRtide by full length PKCζ) [3] [nmol/mg/min]
RTWALCGTPEYLAPEIILKK (activation loop of PKA)	not	–	–	–
VGNQLPFIGFT(P)YFRENL (VGNQLPFIGFTYFRENL) [ROCK-pHM, ROCK HM peptide phosphorylated at the HM phosphorylation site]	not and not able to displace	not and not able to displace	–	–
O=C(O)CC(Cc1nc2cc(Cl)ccc2[nH]1)c1ccc(Cl)cc1 (stereo not shown) [PS114]	–	–	Activation	–
VGNQLPFIGFTYFRENL (ROCK-HM)	displaced; also recorded: strongly diminished	displaced; also recorded: strongly diminished	–	–
GST-PKCζ wild type (1-592) (protein) MPSRTGPKMEGSGGRVRLKAHYGGDIFITSVDAATTFEELCEEVRDMCRLHQQHPLTLKWVDSEGDPCTVSSQMELEEAFRLARQCRDEGLIIHVFPSTPEQPGLPCPGEDKSIYRRGARRWRKLYRANGHLFQAKRFNRRAYCGQCSERIWGLARQGYRCINCKLLVHKRCHGLVPLTCRKHMDSVMPSQEPPVDDKNEDADLPSEETDGIAYISSSRKHDSIKDDSEDLKPVIDGMDGIKISQGLGLQDFDLIRVIGRGSYAKVLLVRLKKNDQIYAMKVVKKELVHDDEDIDWVQTEKHVFEQASSNPFLVGLHSCFQTTSRLFLVIEYVNGGDLMFHMQRQRKLPEEHARFYAAEICIALNFLHERGIIYRDLKLDNVLLDADGHIKLTDYGMCKEGLGPGDTTSTFCGTPNYIAPEILRGEEYGFSVDWWALGVLMFEMMAGRSPFDIITDNPDMNTEDYLFQVILEKPIRIPRFLSVKASHVLKGFLNKDPKERLGCRPQTGFSDIKSHAFFRSIDWDLLEKKQALPPFQPQITDDYGLDNFDTQFTSEPVQLTPDDEDAIKRIDQSEFEGFEYINPLLLSTEESV	–	–	–	60 to 80
